Data reported in the supplement of paper PMC12764529.
± gives the half width of the 95% confidence interval.

Tests used:
[1] = folding stability dG unfold from trypsin proteolysis; higher = more stable
Summary of the method: (§1)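 K50 was inferred by Bayesian fitting of sequencing counts obtained after protease digestion of designed mini-proteins. Unfolding free energy was derived by comparison with a sequence-predicted unfolded-state K50 and a shared folded-state K50, for each protease or both combined. The mini-proteins were under 80 residues, had no cysteine, were carried in a PA-tagged cDNA display construct, and were kept only if AlphaFold2 dimer inter-PAE exceeded 15.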

[2] = folding stability dG unfold from chymotrypsin proteolysis; higher = more stable
Summary of the method: as §1

[3] = folding stability dG unfold (combined trypsin and chymotrypsin); higher = more stable
Summary of the method: as §1

## SAGGSAGGANTVTIELPNGFRITLNDDGTITISYYDPETGELVKTVTIKLPPPPPVVVVHEDDKSAGGSAGG [r6_572_TrROS_Hall]
[1]
  folding stability dG unfold: 3.1 ± 0.23 kcal/mol
[2]
  folding stability dG unfold: 3.39 ± 0.077 kcal/mol
[3]
  folding stability dG unfold: 3.35 ± 0.12 kcal/mol

## SAGGSAGGAPPDLKVTVKPTPGPGTGQRYTVVVELDEGGVLPFPFSFASPSEVEKAAKAIAALLSAGGSAGG [r6_996_TrMRF]
[1]
  folding stability dG unfold: 1.02 ± 0.056 kcal/mol
[2]
  folding stability dG unfold: 1.57 ± 0.14 kcal/mol
[3]
  folding stability dG unfold: 1.31 ± 0.14 kcal/mol

## SAGGSAGGATTEINLPLKVPGSGVTITKMTYDPNKDVYFVTATFPDGTKKTIKVKSLEELKKLLSAGGSAGG [r6_548_JUSTAS]
[1]
  folding stability dG unfold: 3.83 ± 0.24 kcal/mol
[2]
  folding stability dG unfold: 2.52 ± 0.046 kcal/mol
[3]
  folding stability dG unfold: 3.11 ± 0.15 kcal/mol

## SAGGSAGGAVVKLPGNTVMTIDPSTGIAYVTDPSGKVTKYTLTKFPDKTLWEEEPVEEIPSDLLSAGGSAGG [r6_324_JUSTAS]
[1]
  folding stability dG unfold: 1.53 ± 0.09 kcal/mol
[2]
  folding stability dG unfold: 1.44 ± 0.16 kcal/mol
[3]
  folding stability dG unfold: 1.55 ± 0.23 kcal/mol

## SAGGSAGGDAKTFEVEGMTVFVDPETGLAVAEFPDGYLALGRIEVFGPGVAKVDLEIFPLPPGLSAGGSAGG [r6_670_TrMRF]
[1]
  folding stability dG unfold: 1.74 ± 0.11 kcal/mol
[2]
  folding stability dG unfold: 1.53 ± 0.071 kcal/mol
[3]
  folding stability dG unfold: 1.61 ± 0.13 kcal/mol

## SAGGSAGGDEVKIEVEVKKVKVKVRVRVKNEDGEEKEVEKEFEVEVVKVKIEFKSPEEAKKLGLSAGGSAGG [r6_149_TrROS_Hall]
[1]
  folding stability dG unfold: 1.14 ± 0.088 kcal/mol
[2]
  folding stability dG unfold: 0.144 ± 0.42 kcal/mol
[3]
  folding stability dG unfold: 1.11 ± 0.27 kcal/mol

## SAGGSAGGDKNAKPQPIMIAIEIYNPNGRKQEHTFPFESLDDAKEFIEDWLPPGYQVKVDIYPVSAGGSAGG [r6_290_TrROS]
[1]
  folding stability dG unfold: 0.322 ± 0.1 kcal/mol
[2]
  folding stability dG unfold: 0.709 ± 0.07 kcal/mol
[3]
  folding stability dG unfold: 0.693 ± 0.16 kcal/mol

## SAGGSAGGDPGDDYKIGVFPFTFLFGGYRISIPIFRITKDGKPQHIFMAIEIEPLPPPKDPGDNSAGGSAGG [r6_684_TrROS]
[1]
  folding stability dG unfold: 3.21 ± 0.093 kcal/mol
[2]
  folding stability dG unfold: 4 ± 0.087 kcal/mol
[3]
  folding stability dG unfold: 3.71 ± 0.15 kcal/mol

## SAGGSAGGDRLEVVAPVDDPVEQAREFAERLREEFRRRYPDREIDRVEVFYDPGARTLHVRLYPSAGGSAGG [r6_662_TrMRF]
[1]
  folding stability dG unfold: 2.12 ± 0.026 kcal/mol
[2]
  folding stability dG unfold: 2.704 ± 0.024 kcal/mol
[3]
  folding stability dG unfold: 2.51 ± 0.066 kcal/mol

## SAGGSAGGEATEGTLIVGGKPVRVTVERTPEGGRIATVELPNGVTVVARLNPVTRGAEILEVVESAGGSAGG [r6_290_TrMRF]
[1]
  folding stability dG unfold: 0.773 ± 0.05 kcal/mol
[2]
  folding stability dG unfold: 1.45 ± 0.086 kcal/mol
[3]
  folding stability dG unfold: 1.17 ± 0.13 kcal/mol

## SAGGSAGGEDKYLVVEFTVPEGKAEEFIAEVKKKIPPNWKIERVEIVEKTEDGLYRVRVVLKPGSAGGSAGG [r6_340_TrMRF]
[1]
  folding stability dG unfold: 4.5 ± 0.14 kcal/mol
[2]
  folding stability dG unfold: 4.88 ± 0.049 kcal/mol
[3]
  folding stability dG unfold: 4.87 ± 0.086 kcal/mol

## SAGGSAGGEEAREAIEQELRARGINVTEIKVEEKKLTPDKTVVTFTVTARLPDSELTSTFTVVDSAGGSAGG [r6_533_JUSTAS]
[1]
  folding stability dG unfold: 0.141 ± 0.19 kcal/mol
[2]
  folding stability dG unfold: -0.92 ± 0.81 kcal/mol
[3]
  folding stability dG unfold: -0.173 ± 0.13 kcal/mol

## SAGGSAGGEFTVTVTIEKDEEKGFIRIPISVSLPSSAFVPKTVEFLEFAKTLKENLPELEVDASSAGGSAGG [r6_102_TrMRF]
[1]
  folding stability dG unfold: 0.609 ± 0.018 kcal/mol
[2]
  folding stability dG unfold: 0.65 ± 0.075 kcal/mol
[3]
  folding stability dG unfold: 0.679 ± 0.038 kcal/mol

## SAGGSAGGEIPPNIKKIETLPDDGWLMVKVDSPKDIREFFEDHGWEIKDVEEEGNTIHIPIKPKSAGGSAGG [r6_381_TrROS]
[1]
  folding stability dG unfold: 0.648 ± 0.072 kcal/mol
[2]
  folding stability dG unfold: 0.893 ± 0.24 kcal/mol
[3]
  folding stability dG unfold: 0.79 ± 0.25 kcal/mol

## SAGGSAGGEKGYKLVEITIPVTVYHGNKPYTIPIPIKVKSPEEVEKLKKFIENTSYDPTSGKFSSAGGSAGG [r6_197_TrMRF]
[1]
  folding stability dG unfold: 0.607 ± 0.1 kcal/mol
[2]
  folding stability dG unfold: 1.28 ± 0.24 kcal/mol
[3]
  folding stability dG unfold: 1.02 ± 0.13 kcal/mol

## SAGGSAGGEKPVVTRLELVETEEGLVRLRVELPDGELVEERRFPTLEEALAALPPGAKVEIVPLSAGGSAGG [r6_492_TrROS_Hall]
[1]
  folding stability dG unfold: 1.85 ± 0.032 kcal/mol
[2]
  folding stability dG unfold: 1.54 ± 0.01 kcal/mol
[3]
  folding stability dG unfold: 1.7 ± 0.032 kcal/mol

## SAGGSAGGELEVEIVSVEFDEETKEIRIKIYVNGKLIEEKTIKIEPVKVYYKTKDGKKVSAEDLSAGGSAGG [r6_832_TrROS_Hall]
[1]
  folding stability dG unfold: 1.1 ± 0.089 kcal/mol
[2]
  folding stability dG unfold: 1.16 ± 0.26 kcal/mol
[3]
  folding stability dG unfold: 1 ± 0.19 kcal/mol

## SAGGSAGGEPELNVLETLEETVDPNTGLTYTTELVQLPDGTLVTVKTLYDKATGTWTVLETTPESAGGSAGG [r6_262_JUSTAS]
[1]
  folding stability dG unfold: 2.4 ± 0.18 kcal/mol
[2]
  folding stability dG unfold: 2.07 ± 0.079 kcal/mol
[3]
  folding stability dG unfold: 2.18 ± 0.13 kcal/mol
